Reference: patent US20200200749A1 (published 2020)

T1: SUDV GP (recombinant) (SUDV (Sudan ebolavirus), UniProt Q66814 33-650)
T1 chain: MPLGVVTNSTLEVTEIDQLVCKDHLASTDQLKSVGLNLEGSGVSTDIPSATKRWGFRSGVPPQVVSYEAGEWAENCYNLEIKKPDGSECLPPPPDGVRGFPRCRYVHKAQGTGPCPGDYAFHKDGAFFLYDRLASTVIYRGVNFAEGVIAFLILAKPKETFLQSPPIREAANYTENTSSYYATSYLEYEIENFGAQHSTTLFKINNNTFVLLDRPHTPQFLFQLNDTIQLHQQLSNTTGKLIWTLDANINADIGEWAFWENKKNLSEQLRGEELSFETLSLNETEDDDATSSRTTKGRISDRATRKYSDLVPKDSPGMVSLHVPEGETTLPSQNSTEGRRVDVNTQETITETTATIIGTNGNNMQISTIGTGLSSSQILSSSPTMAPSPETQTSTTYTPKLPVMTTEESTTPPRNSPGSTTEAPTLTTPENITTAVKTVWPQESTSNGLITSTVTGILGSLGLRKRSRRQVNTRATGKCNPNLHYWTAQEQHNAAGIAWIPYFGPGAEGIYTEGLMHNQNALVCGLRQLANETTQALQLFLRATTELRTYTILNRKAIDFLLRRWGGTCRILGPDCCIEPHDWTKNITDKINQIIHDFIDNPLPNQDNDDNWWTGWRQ

T2: EBOV GP (recombinant, full-length extracellular domain) (EBOV (Ebola Zaire), UniProt Q05320 33-650)
T2 chain: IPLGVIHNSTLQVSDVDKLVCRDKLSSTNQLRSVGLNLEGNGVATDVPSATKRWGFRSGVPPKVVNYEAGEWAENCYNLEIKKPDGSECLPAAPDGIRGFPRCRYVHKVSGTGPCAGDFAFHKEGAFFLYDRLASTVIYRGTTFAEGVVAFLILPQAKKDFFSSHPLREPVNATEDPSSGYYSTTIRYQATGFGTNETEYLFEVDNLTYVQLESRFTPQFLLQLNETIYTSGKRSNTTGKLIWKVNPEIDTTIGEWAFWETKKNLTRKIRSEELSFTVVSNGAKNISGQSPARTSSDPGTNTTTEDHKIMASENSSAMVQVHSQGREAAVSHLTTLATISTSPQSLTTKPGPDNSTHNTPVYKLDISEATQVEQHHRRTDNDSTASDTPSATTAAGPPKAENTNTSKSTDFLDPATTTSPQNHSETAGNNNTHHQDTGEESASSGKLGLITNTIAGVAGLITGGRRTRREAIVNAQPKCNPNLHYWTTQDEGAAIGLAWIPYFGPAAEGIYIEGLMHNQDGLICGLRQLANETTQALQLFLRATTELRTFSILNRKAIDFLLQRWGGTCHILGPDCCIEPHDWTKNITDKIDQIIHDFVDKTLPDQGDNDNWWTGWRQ

B1: BDBV289 (antibody, V domains shown)
VH: QVQLVQSGAEVKKPGSSVKVSCKASGATFGSDTVTWVRQAPGQGLEWMGGIIPFFGEANYAQRFQGRVTITADKSTNTAYMELSSLRSEDTAVYFCARQINEMATFGEIHYYTYMDVWGQGTLVTVSS
VL: GSELTQDPAVSVALGQTVRITCQGDSLRNYYASWYQQKPRQAPVLVFYGKNNRPSGIPDRFSGSSSGNTASLTISGAQAEDEADYYCNSRDSSSNHLVFGGGTKLTVLS
B2: BDBV324 (antibody, V domains shown)
VH: QVQLVQSGAEVKKPGASVKVSCKTSGYTFTSFEIHWVRQGSGQGLEWMGRMNPKSGDTVSAQKFQGRVTLTRDTSINAAYMELGSLSSEDTAVYYCARGPHVGEVVPGLMAGTYYFPLDVWGQGTLVTVSS
VL: DIQMTQSPSTLSASIGDRVTITCRASQSISRWLAWYQQKPGKAPKLLIYKVSDLQSGVPSRFSGSGYGTEFTLTIGSLQPDDLATYYCQQYDTYPWTFGQGTKLEIK
B3: BDBV223 (antibody, V domains shown)
VH: QVQLQQWGAGLLKPSETLSLTCAVYGGSFTTTYWNWIRQPPGKGLEWIGEVNYSGNANYNPSLKGRVAISVDTSKNQFSLRLNSVTAADTAIYYCTSRIRSHIAYSWKGDVWGKGTTVTVSS
VL: EIVMTQSPGTLSLSPGERATLSCRASQSVPRNYIGWFQQKPGQAPRLLIYGASSRAAGFPDRFSGSGSGTDFTLTITRLEPEDFAMYYCHQYDRLPYTFGQGTKLEIK
B4: BDBV270 (antibody, V domains shown)
VH: QVQLQESGPGLVKPSQTLSLTCTVSGASISRGLYYWSWIRQPAGKGLEWIGRIYTSGSINYNPSLKSRVTISVDTSKNQFSLRLSSVIATDTAVYYCVRDAPWGDFLTGYFGFYGMDVWGQGTLVTVSS
VL: DIVMTQSPSSLSASVGDRVTITCRASQSINTYLNWYQQKPGKAPKFLIYAASSLHSGVPSRFSGSGSGTDFTLTINSLQPDDFATYYCQQSFTTPYTFGQGTKLEIK

Target: T1, SUDV GP (recombinant)
Assay: ELISA

Binder | EC50
B1 | 0.103 µg/mL
B2 | 0.09 µg/mL
B3 | 0.106 µg/mL
B4 | 0.159 µg/mL

Target: T2, EBOV GP (recombinant, full-length …)
Assay: ELISA

Binder | EC50
B1 | 0.029 µg/mL
B2 | 0.131 µg/mL
B3 | 0.024 µg/mL
B4 | 0.173 µg/mL
